# Laboratory results published in PMC4835898 (Frontiers in Microbiology, 2016).
# B1: Bacillus subtilis GrpE, Strep-tagged (natural protein, Bacillus subtilis 168, UniProt P15874 1-187, looked up)
# chain: MSEEKQTVEQNETEEQEIIEEQAAADEQQEETNESELLQNQINELQGLLEEKENKLLRVQADFENYKRRSRLEMEASQKYRSQNIVTDLLPALDSFERALQVEADNEQTKSLLQGMEMVHRQLVEALKKEGVEAIEAVGQEFDPNLHQAVMQAEDENYGSNIVVEEMQKGYKLKDRVIRPSMVKVNQ
# notes: Made in a pQE-30 vector in which the His-tag was replaced by a strep-tag (Jers et al., 2010)
# B2: Bacillus subtilis DnaJ, Strep-tagged (natural protein)
# chain: not shown
# notes: as for B1
# Legend:
# [1] = biological target: T1, Bacillus subtilis DnaK wild type, 6xHis-tagged (Bacillus subtilis 168, UniProt P17820 1-611, to some extent phosphorylated (phosphotyrosine signal) during heterologous expression in E. coli; residues and extent not told for this preparation); assay: pull-down; 100 ug 6xHis-DnaK (WT or Y601F) and 100 ug Strep-tagged DnaJ or GrpE incubated with 1 ug anti-6xHis antibody (HIS.H8) in 450 uL IP Lysis/Wash Buffer (Pierce Classic IP Kit); captured on Protein A/G agarose; eluates blotted with anti-Strep tag and anti-His tag; details: both partners purified
# T1 construct: probably the whole ORF, since Y601 lies near the C-terminus; also called DnaK WT; WT DnaK; source: E. coli (NEB Express Iq), purified (Ni-NTA, desalted on PD-10); not shown: 6xHis, N-terminal, kept
# [2] = biological target: T2, Bacillus subtilis DnaK Y601F, 6xHis-tagged (Bacillus subtilis 168, UniProt P17820 1-611, Y601F, to some extent phosphorylated during heterologous expression in E. coli (on residues other than 601); residues not told for this preparation); assay: as above; details: both partners purified
# T2 construct: the mutant is described as a version of the same protein in the same vector; source: E. coli (NEB Express Iq), purified (Ni-NTA, desalted on PD-10); not shown: 6xHis, N-terminal, kept
binder,measurement,setting,value
B1,binding result,[1],binds
same,binding result,[2],binds
B2,binding result,[1],binds
same,binding result,[2],binds
